In patent US20090232804A1 (GLENMARK PHARMACEUTICALS S A, published 2009):
Substitutions are numbered along the chain they refer to. Several values for one entry are separate records, joined by “and”; a condition that tells them apart may be missing. Equal entries are not always repeated. Values belong to the molecule of their own block, whether it stands above or below them.

What was measured:
[1] = target: His tagged A1 domain of human von Willebrand factor (residues 499-729), expressed in E. coli (human) (UniProt P04275); assay: calculated from koff, DELFIA kinetics on plate-coated His-A1, 37 °C
[2] = target: His tagged A1 domain of human von Willebrand factor (residues 499-729), expressed in E. coli (human) (UniProt P04275); assay: ratio of the kinetic constants (row printed as 'kon/koff'), DELFIA, 37 °C
[3] = target: His tagged A1 domain of human von Willebrand factor (residues 499-729), expressed in E. coli (human) (UniProt P04275); assay: homologous competition with Eu-NMC-4 chimera on plate-coated His-A1, DELFIA, Cheng-Prusoff, n = 4
[4] = target: His tagged A1 domain of human von Willebrand factor (residues 499-729), expressed in E. coli (human) (UniProt P04275); assay: equilibrium binding (Scatchard), Eu-labelled antibody on direct-coated His-A1, DELFIA, 37 °C, n = 10
[5] = target: His tagged A1 domain of human von Willebrand factor (residues 499-729), expressed in E. coli (human) (UniProt P04275); assay: homologous competition with 100 pM Eu-NMC-4 chimera on plate-coated human His-A1, DELFIA, Cheng-Prusoff
[6] = target: His tagged A1 domain of human von Willebrand factor (residues 499-729), expressed in E. coli (human) (UniProt P04275); assay: DELFIA competitive binding (time-resolved fluorescence): Eu-NMC-4 chimera at 100 pM on wells coated with His-hA1, unlabelled competitor antibody varied (homologous competition)
[7] = target: purified human von Willebrand factor (vWF) (human) (UniProt P04275); assay: cell-based or functional assay
[8] = target: His tagged A1 domain of human von Willebrand factor (residues 499-729), expressed in E. coli (human) (UniProt P04275); assay: DELFIA competitive binding format (time-resolved fluorescence): Eu-NMC-4 chimera at 100 pM on wells coated with His-hA1, unlabelled AJW200 varied; EC50 of the enhancement of Eu-NMC-4 binding
[9] = target: His tagged A1 domain of human von Willebrand factor (residues 499-729), expressed in E. coli (human) (UniProt P04275); assay: competition with 100 pM Eu-NMC-4 chimera on plate-coated human His-A1, DELFIA, Cheng-Prusoff
[10] = target: T1, purified human von Willebrand factor (vWF) (human, UniProt P04275 764-2813); assay: cell-based or functional assay
[11] = target: T1, purified human von Willebrand factor …; assay: cell-based or functional assay; remark: listed apart in the source
[12] = target: T1, purified human von Willebrand factor …; assay: cell-based or functional assay; remark: listed apart in the source
[13] = target: T1, purified human von Willebrand factor …; assay: cell-based or functional assay; remark: listed apart in the source

Dissociation half-life [1]: 44 min
Kd [2]: 0.39 nM
Ki [3]: 0.275 nM
Kd [4]: 0.316 nM
Ki [5]: 0.28 nM
IC50 (read off the curve) [6]: 0.6 nM
Molecule: NMC-4-human Fc chimera (NMC-4 variable regions on human IgG1(dm) and human kappa constant regions) (antibody)

EC50, ristocetin-induced platelet agglutination assay [7]: 0.27 nM
EC50 (read off the curve) [8]: 0.2 nM
Molecule: AJW200 reference antibody (anti-vWF A1 domain, cloned with human IgG1(dm) constant region)

Ki [9]: 0.6 nM
Molecule: NMC-4 monoclonal antibody (murine anti-vWF antibody, IgG1κ)

EC50, ristocetin-induced platelet agglutination assay [10]: 0.17 nM
B1: NMC-4 monoclonal antibody (murine anti-vWF antibody, IgG1κ) (antibody, V domains shown)
VH: QVQLKESGPGLVAPSQSLSITCTVSGFSLTDYGVDWVRQPPGKGLEWLGMIWGDGSTDYNSALKSRLSITKDNSKSQVFLKMNSLQTDDTARYYCVRDPADYGNYDYALDYWGQGTSVTVSS
VL: DIQMTQSPSSLSASLGDRVTISCSASQDINKYLNWYQQKPDGAVKLLIFYTSSLHSGVPSRFSGSGSGTDYSLTISNLEPEDIATYYCQQYEKLPWTFGGGTKLEVKR

fold change of EC50 against the other variants [10]: 1.5 fold
EC50 [11]: 0.28 nM
B2: humanized NMC-4 variant H8, L5 (IgG1) (antibody, V domains shown)
VH: QVQLQESGPGLVKPSETLSLTCTVSGFSLTDYGVDWIRQPPGKGLEWIGMIWGDGSTDYNSALKSRLTISKDNSKNQFSLKLSSVTAADTAVYYCVRDPADYGNYDYALDYWGQGTSLTVSS
VL: DIQMTQSPSSLSASVGDRVTITCSASQDINKYLNWYQQKPGKAVKLLIFYTSSLHSGVPSRFSGSGSGTDYTLTISSLQPEDIATYYCQQYEKLPWTFGQGTKVEIK

Platelet agglutination EC50, single experiment [12]: 1.3 nM and 1.5 nM
Platelet agglutination EC50 mean value (from 2 independent expts.) [12]: 1.4 nM
B3: humanized NMC-4 variant H9L9 IgG4 (antibody, V domains shown)
VH: B2 VH with L67V, K71V, N73T, V96A, S117L, L118V
VL: B2 VL with V44P, F49Y, Y71F, I83F

EC50 [11]: 0.13 nM
B4: humanized NMC-4 variant H2, L5 (IgG1) (antibody, V domains shown)
VH: B2 VH with F78V
VL: B2 VL

EC50 (nM), platelet agglutination assay [13]: 0.29 nM
B5: humanized NMC-4 variant H12, L9 (IgG1) (antibody, V domains shown)
VH: B2 VH with F27G, L29I, T30S, L67V, K71V, N73T, V96A, S117L, L118V
VL: B2 VL with V44P, F49Y, Y71F, I83F

EC50 [11]: 0.11 nM
B6: humanized NMC-4 variant H9, L7 (IgG1) (antibody, V domains shown)
VH: B2 VH with L67V, K71V, N73T, V96A, S117L, L118V
VL: B2 VL with Y71F

EC50 [11]: 0.14 nM
B7: humanized NMC-4 variant H2, L6 (IgG1) (antibody, V domains shown)
VH: B2 VH with F78V
VL: B2 VL with F49Y

EC50 [11]: 0.12 nM
EC50 (nM), platelet agglutination assay [13]: 0.12 nM
Platelet agglutination EC50, single experiment [12]: 1.3 nM
Platelet agglutination EC50 mean value (from 2 independent expts.) [12]: 1.3 nM
B8: humanized NMC-4 variant H9, L9 (CDR-grafted), IgG1 (antibody, V domains shown)
VH: B2 VH with L67V, K71V, N73T, V96A, S117L, L118V
VL: B2 VL with V44P, F49Y, Y71F, I83F

EC50 (nM), platelet agglutination assay [13]: 0.22 nM
Platelet agglutination EC50, single experiment [12]: 1.1 nM and 1.3 nM
Platelet agglutination EC50 mean value (from 2 independent expts.) [12]: 1.2 nM
B9: humanized NMC-4 variant H14, L10, IgG1 (antibody, V domains shown)
VH: QVQLQESGPGLVKPSETLSLTCTVSGGSISDYGWDWIRQPPGKGLEWIGMIWGDGSTDYNPSLKSRVTISVDTSKNQFSLKLSSVTAADTAVYYCARDPADYGNYDYALDYWGQGTLVTVSS
VL: B2 VL with S24Q, N30S, K31N, V44P, F49Y, Y71F, I83F

EC50 [11]: 0.08 nM
B10: humanized NMC-4 variant H9, L8 (IgG1) (antibody, V domains shown)
VH: B2 VH with L67V, K71V, N73T, V96A, S117L, L118V
VL: B2 VL with V44P, F49Y, Y71F

EC50 (nM), platelet agglutination assay [13]: 0.16 nM
B11: humanized NMC-4 variant H13, L9 (IgG1) (antibody, V domains shown)
VH: B9 VH with P61S, S62A
VL: B2 VL with V44P, F49Y, Y71F, I83F

EC50 [11]: 0.11 nM
B12: humanized NMC-4 variant H9, L4 (IgG1) (antibody, V domains shown)
VH: B2 VH with L67V, K71V, N73T, V96A, S117L, L118V
VL: B2 VL with V44P

EC50 (nM), platelet agglutination assay [13]: 0.2 nM
B13: humanized NMC-4 variant H13, L10 (IgG1) (antibody, V domains shown)
VH: B9 VH with P61S, S62A
VL: B2 VL with S24Q, N30S, K31N, V44P, F49Y, Y71F, I83F

EC50 (nM), platelet agglutination assay [13]: 0.13 nM
B14: humanized NMC-4 variant H14, L9 (IgG1) (antibody, V domains shown)
VH: B9 VH
VL: B2 VL with V44P, F49Y, Y71F, I83F

EC50 [11]: 0.14 nM
B15: humanized NMC-4 variant H2, L4 (IgG1) (antibody, V domains shown)
VH: B2 VH with F78V
VL: B2 VL with V44P

EC50 [11]: 0.18 nM
B16: humanized NMC-4 variant H5, L5 (IgG1) (antibody, V domains shown)
VH: B2 VH with L67V, F78V
VL: B2 VL

EC50 [11]: 0.15 nM
B17: humanized NMC-4 variant H4, L5 (IgG1) (antibody, V domains shown)
VH: B2 VH with F78V, V96A
VL: B2 VL

EC50 [11]: 0.13 nM
B18: humanized NMC-4 variant H9, L6 (IgG1) (antibody, V domains shown)
VH: B2 VH with L67V, K71V, N73T, V96A, S117L, L118V
VL: B2 VL with F49Y

EC50 [11]: 0.16 nM
B19: humanized NMC-4 variant H7, L5 (IgG1) (antibody, V domains shown)
VH: B2 VH with N73T, F78V
VL: B2 VL

EC50 [11]: 0.18 nM
B20: humanized NMC-4 variant H6, L5 (IgG1) (antibody, V domains shown)
VH: B2 VH with K71V, F78V
VL: B2 VL

Platelet agglutination EC50, single experiment [12]: 2.3 nM and 2 nM
Platelet agglutination EC50 mean value (from 2 independent expts.) [12]: 2.15 nM
B21: humanized NMC-4 variant H14-L10, IgG4 (antibody, V domains shown)
VH: B9 VH
VL: B2 VL with S24Q, N30S, K31N, V44P, F49Y, Y71F, I83F

EC50 [11]: 0.15 nM
B22: humanized NMC-4 variant H2, L7 (IgG1) (antibody, V domains shown)
VH: B2 VH with F78V
VL: B2 VL with Y71F

EC50 [11]: 0.14 nM
B23: humanized NMC-4 variant H9, L5 (IgG1) (antibody, V domains shown)
VH: B2 VH with L67V, K71V, N73T, V96A, S117L, L118V
VL: B2 VL

fold lower activity compared to chimera, platelet agglutination assay [10]: 10 fold
EC50 (nM), platelet agglutination assay [13]: 1.63 nM
B24: humanized NMC-4 variant H14, L11 (IgG1) (antibody, V domains shown)
VH: B9 VH
VL: DIQMTQSPSSLSASVGDRVTITCQASQDISNYLNWYQQKPGKAPKLLIYDASNLETGVPSRFSGSGSGTDFTLTFSSLQPEDFATYYCQQYEKLPWTFGQGTKVEIK
